Laboratory results from publication PMC2199947.

Biological target: receptor-type protein tyrosine phosphatase PTPmu (endogenous, MvLu mink lung cells) (mink (endogenous in MvLu))
Assay: co-IP

## 130-kD cadherin of MvLu cells (natural protein)
  percent of the cadherin cleared from the lysate by immunoprecipitation of PTPmu: 80%

## 116-kD cadherin of MvLu cells (natural protein)
  percent of the cadherin cleared from the lysate by immunoprecipitation of PTPmu: 80%
